Patent US20240166768A1 (YEDA RESEARCH AND DEVELOPMENT, published 2024)

Assays:
BSA [1] = molecular target: T1, BSA (bovine, UniProt P02769); experiment: ELISA heatmap, OD630
Method: (§1) ELISA reactions were carried out using flat-bottom MaxiSorp™ 96-well plates (Invitrogen). Antigen coating was performed in PBS at 1001 per well and left overnight at 4° C. For standard dose response ELISA assays, antigens were plated at a concentration of 1 μg/ml. For comparative ELISA assays with multiple antigen targets, antigens were plated at a constant molar concentration of 50 nM. The plates were washed 5 times with washing buffer (1×PBS with 0.05% Tween-20 (Sigma-Aldrich)) and incubated with 1001 blocking buffer (1×PBS with 1% BSA) for 1 h at room temperature. The blocking solution was subsequently replaced by serial dilutions of either mono- or polyclonal antibodies or serum samples for 2.5 h at RT. For standard dose response ELISA assays, antibodies were introduced over a range of dilutions whereas for ELISA screens, antibodies were introduced at 100 nM. Serum samples were assayed at a dilution of 1:100. Plates were washed 5 times with washing buffer and then incubated with anti-human IgG secondary antibody conjugated to horseradish peroxidase (HRP) (Jackson Immuno Research) in PBS at a 1:5,000 dilution. After washing the plates for additional 5 times, the plates were developed using TMB (Thermo Fisher) and absorbance was measured at 630 nm with an ELISA microplate reader (Synergy HTX plate reader, Biotek).
Strikingly, in 3/4 patients, monoclonal antibodies that bound MMP14 with various degrees of effectiveness and specificity were detected, confirming the analysis using polyclonal patient-derived antibodies. In order to further examine the specificity of the monoclonal antibodies, the binding activity of the antibodies was tested in different dilutions by ELISA.

[2] = molecular target: T2, ROI-1 peptide of MMP14 (I-A loop); experiment: peptide validation ELISA: antibody plated, biotinylated peptide titrated, streptavidin-HRP; the concentration is that of the peptide
T2 construct: also called 'ROI-peptide'; 'Peptide (ROI)'

BSA [3] = molecular target: T1, BSA; experiment: dose-response ELISA, O.D. 630
Method: as §1, with “Biotek). […]” for “Biotek).”

T1 sequence (P02769 25-607 limits assumed): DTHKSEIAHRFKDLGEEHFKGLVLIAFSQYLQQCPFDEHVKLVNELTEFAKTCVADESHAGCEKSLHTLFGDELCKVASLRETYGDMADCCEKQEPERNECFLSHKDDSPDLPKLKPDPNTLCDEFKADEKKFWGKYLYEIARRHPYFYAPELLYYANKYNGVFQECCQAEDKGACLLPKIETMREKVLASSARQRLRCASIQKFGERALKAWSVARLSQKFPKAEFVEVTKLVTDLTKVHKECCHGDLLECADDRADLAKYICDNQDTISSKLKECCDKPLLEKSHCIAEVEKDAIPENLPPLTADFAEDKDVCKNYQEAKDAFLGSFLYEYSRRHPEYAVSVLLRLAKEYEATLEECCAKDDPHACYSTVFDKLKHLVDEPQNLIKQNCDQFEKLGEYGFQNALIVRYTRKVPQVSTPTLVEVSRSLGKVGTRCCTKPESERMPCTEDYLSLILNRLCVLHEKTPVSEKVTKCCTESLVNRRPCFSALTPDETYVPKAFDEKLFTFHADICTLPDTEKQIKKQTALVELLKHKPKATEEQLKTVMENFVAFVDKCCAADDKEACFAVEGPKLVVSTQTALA

Binder	binding result (BSA [1])	EC50 (read off the curve) [2] [µg/mL]	also measured
T22 (antibody, V domains shown) VH: QVQLVQSGAEVKKPGSSVKVACKASGGTFSRSAISWVRQAPGQGLEWMGGIIRIFNTADYAQKFQGRVTMSADESTSTAYMELSSLRSEDTAVYYCATSSLSDIVVAEGAFVDHYFGMDVWGQGTTVTVSS VL: not shown	no binding (tested: 100 nM)		
T12 (antibody, human IgG1, V domains shown) VH: EVQLVESGGGLVQPGGSLRLSCAASGFTFNNHDMHWVRQVTGKGLEWVSSIGNFGDTYYSGSVKGRFTISRQDAKNSLYLQMNRLRVGDTAVYYCARGRAVAGNPLDVWGKGTTVTVSS VL: EIVMTQSPATLSVSPGETATLSCRANQTLYNNLAWYQQKPGQAPRLLIYSGSTRATGIPARFSGSGSGTEFSLTISSLQSEDFAVYYCQHYTPWPPYTFGQGTKVDFK		~4	
T17 (antibody, V domains shown) VH: EVQLVESGGGLVQPGGSLTLSCTASGFTYFGFAMTWVRQPPGKGLEWISSINLLSGTTYYVDSVKGRFTISRDNSKNTVFLQMKGLTAEDTAVYYCAKVGATQDLHYFDFWGQGTLVTVSS VL: DIQMTQSPSTLSASVGDRVTITCRASQSVYRWLAWYQQKPGEAPKLLVYGAFSLQSGVPPRFSGSGYGTEFTLTISSLQPDDFATYYCQQYNSHSTFGQGTKVEVK	no binding (tested: 100 nM)		
T13-GL (antibody, human IgG1, V domains shown, also called germline version of T13) VH: EVQLVESGGGLVQPGGSLRLSCAASGFTFSSYDMHWVRQATGKGLEWVSAIGTAGDTYYPGSVKGRFTISRENAKNSLYLQMNSLRAGDTAVYYCARGIAVAGFPLDVWGKGTTVTVSS VL: not shown			binding result (BSA [3]): no binding (tested: about 500 nM)
T26 (antibody, V domains shown) VH: QVQLVQSGSEVKKPGASVKVSCKASGYTFTSNGISWVRQAPGQGLEWMGWISAYNGNTNYAQKFQGRVSLTTDTSTSTAYMELRNLTSDDTARYYCARSRGHYGDYLYGYWGQGTLVTVSS VL: QSVLTQPPSVSGAPGQRVTISCTGSSSNIGAGYDVHWYQQLPGTAPKLLIHGNSNRPSGVPDRFSGSKSGTSASLAITGLQAEDEADYYCQSFDSSLSGSVVFGGGTKLTVL	no binding (tested: 100 nM)		
T13 (antibody, V domains shown, The digit 1 is dropped in many places of the text; also called mAb T13) VH: EVQLVESGGGLVQPGGSLRLSCAASGFIFSKHDMYWVRQRPGKGLEWVSRIGDAGDTYYAGSVKGRFTIFRENAKNTLYFQMNRLTDGDTAVYYCGRGMAVAGFPLDVWGRGTRVTVTS VL: EIVMTQSPATLSVSPGERATLSCRASQNIHINLAWYQQKPGQAPRLIIYAASTRAAGIPARFSASGSGTEFTLTISSLQSEDFAVYYCQQFNPWSPWTFGQGTKVEVK		~2	
